Measured values: patent US6528487B1, “Peptide inhibitors of inflammation mediated by selectins” (Centocor, Inc., priority 1991, dated 2003)
No end group written: not given here. *: point of attachment. Fmoc = O=C(OCC1c2ccccc2-c2ccccc21)*

Target: T1, GMP-140 (Homo sapiens, UniProt P16109)
T1 construct: from tissue; host or cells: human platelets (outdated platelet packs from a blood bank)
T1 sequence (P16109 42-830): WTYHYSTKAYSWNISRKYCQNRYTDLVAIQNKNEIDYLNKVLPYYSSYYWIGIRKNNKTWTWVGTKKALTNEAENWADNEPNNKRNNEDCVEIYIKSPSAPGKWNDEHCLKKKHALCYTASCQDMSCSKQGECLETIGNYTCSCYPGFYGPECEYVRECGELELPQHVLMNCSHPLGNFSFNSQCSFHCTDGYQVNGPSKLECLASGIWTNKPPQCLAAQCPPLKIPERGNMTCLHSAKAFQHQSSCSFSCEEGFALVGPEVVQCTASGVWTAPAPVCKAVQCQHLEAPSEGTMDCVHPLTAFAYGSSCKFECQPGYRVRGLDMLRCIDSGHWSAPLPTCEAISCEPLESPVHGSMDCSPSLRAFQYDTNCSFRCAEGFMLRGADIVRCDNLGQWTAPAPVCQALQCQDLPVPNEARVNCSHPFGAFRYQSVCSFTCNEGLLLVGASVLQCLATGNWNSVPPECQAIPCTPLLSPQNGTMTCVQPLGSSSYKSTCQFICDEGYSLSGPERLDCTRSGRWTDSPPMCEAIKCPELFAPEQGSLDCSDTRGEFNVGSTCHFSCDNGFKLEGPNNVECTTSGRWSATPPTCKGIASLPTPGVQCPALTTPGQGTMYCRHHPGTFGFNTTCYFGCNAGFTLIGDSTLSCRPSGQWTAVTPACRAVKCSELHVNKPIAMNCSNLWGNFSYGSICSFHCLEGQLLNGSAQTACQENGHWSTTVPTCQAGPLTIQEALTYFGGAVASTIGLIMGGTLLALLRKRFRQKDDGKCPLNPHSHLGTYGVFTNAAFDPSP
Experiment: Inhibition of neutrophil binding to GMP-140 coated wells
Format: cell-based
Conditions: human neutrophils, immobilized GMP-140; for inhibition at 100 µM / inhibition at 500 µM / inhibition at 1000 µM: read-out: Percent inhibition of neutrophil binding to GMP-140
Source text: Peptides can be screened for their ability to inhibit adhesion to cells, for example, neutrophil adhesion to purified GMP-140 immobilized on plastic wells, using the assay described by Geng, et al., Nature 343, 757-760 (1990).
Human neutrophils are isolated from heparinized whole blood by density gradient centrifugation on Mono-Poly resolving media, Flow laboratories. Neutrophil suspensions are greater than 98% pure and greater than 95% viable by trypan blue exclusion. For adhesion assays, neutrophils are suspended at a concentration of 2×10^6 cells/mL in Hanks' balanced salt solution containing 1.26 mM Ca^2+ and 0.81 mM Mg^2+ (HBSS, Gibco) with 5 mg/mL human serum albumin (HBSS/HSA). Adhesion assays are conducted in triplicate in 96-well microtiter plates, Corning, incubated at 4° C. overnight with 50 microliters of various protein solutions.
GMP-140 is isolated from human platelet lysates by immunoaffinity chromatography on antibody S12-Sepharose™ and ion-exchange chromatography on a Mono-Q™ column (FLPC, Pharmacia Fine Chemicals, as follows.
GMP-140 is plated at 5 micrograms/mL and the control proteins: human serum albumin (Alb), platelet glycoprotein Iib/IIIha (Iib), von Willebrand factor (vWF), fibrinogen (FIB), thrombomodulin™, gelatin (GEL) or human serum (HS), are added at 50 micrograms/mL. All wells are blocked for 2 h at 22° C. with 300 microliters HBSS containing 10 mg/mL HSA, then ashed three times with HBSS containing 0.1% Tween-20 and once with HBSS. Cells (2×10^5 per well are added to the wells and incubated at 22° C. for 20 min. The wells are then filled with HGSS/HSA, sealed with acetate tape (Dynatech), and centrifuged inverted at 150 g for 5 min. After discarding nonadherent cells and supemates, the contents of each well are solubilized with 200 microliters of 0.5% hexadecyltrimethylammonium bromide, Sigma, in 50 mM potassium phosphate, pH 6.0, and assayed for myeloperoxidase activity, Ley, et al., Blood 73, 1324-1330 (1989). The number of cells bound is derived from a standard curve of myeloperoxidase activity versus numbers of cells. Under all assay conditions, the cells release less than 5% of total myeloperoxidase and lactate dehydrogenase. Inhibition is read as a lower percent adhesion, so that a value of 5% means that 95% of the specific adhesion was inhibited.
Binding of various peptides to GMP-140 coated wells, as described above, were compared.
Binding of the peptides at various concentrations, ranging from 0.05 to 1 mM were compared.
A 5 μg/mL solution of GMP-140 in HBSS (buffer) is prepared. 50 μL is pipetted per well with the exception of three wells (A10 to A12) and the plate is stored overnight at 0° C. to 4° C. The liquids are removed by aspiration and 300 μL of 5 mg/mL human serum albumin (HSA)/HBSS is placed in the wells coated with GMP-140 plus the three non-coated wells to be used as control wells. The plate is allowed to incubate at room temperature for two hours. The HSA/HBSS solution is removed and the wells washed three times with 300 μL/well of HBSS. The third 300 μL wash of HBSS is left in each well and the plate is kept at room temperature until it is used.
Eight to ten mL of fresh human blood collected in heparinized tubes is carefully layered over 5 mL of the Mono-Poly Resolving Medium in 15 mL polypropylene centrifuge tubes. The tubes are centrifuged for 30 minutes at room temperature and 1400 to 1600 rpm. The tubes are rotated 180° and centrifuged for another 30 minutes under the same conditions. The top plasma layer and first cellular layer of leukocytes are drawn off. The second cellular layer of neutrophils is harvested (usually 2 to 3 mL per tube) and is placed in a clean 15 mL centrifuge tube. This is then underlayered with 1.5 mL of fresh resolving medium and spun at 2000 rpm for 15 minutes at room temperature. This is done to further purify the neutrophils from residual red blood cells. […]

Percent inhibition of neutrophil binding to GMP-140 (peptide concentration 0.1 mM) [%] | Percent inhibition of neutrophil binding to GMP-140 (peptide concentration 0.5 mM) [%] | Percent inhibition of neutrophil binding to GMP-140 (peptide concentration 1.0 mM) [%] | inhibition at 100 µM (peptide concentration 0.1 mM) [%] | inhibition at 500 µM (peptide concentration 0.5 mM) [%] | inhibition at 1000 µM (peptide concentration 1.0 mM) [%] | Substance
85 | 100 | 99 |  |  |  | FMOC-Asn-Asn-Lys-Thr-Trp-NH2 (Fmoc-NNKTW-NH2; SMILES C[C@@H](O)[C@H](NC(=O)[C@H](CCCCN)NC(=O)[C@H](CC(N)=O)NC(=O)[C@H](CC(N)=O)NC(=O)OCC1c2ccccc2-c2ccccc21)C(=O)N[C@@H](Cc1c[nH]c2ccccc12)C(N)=O)
31 | 53 | 99 |  |  |  | Arg-Lys-Asn-Asn-Lys-Thr-Trp-NH2 (RKNNKTW-NH2)
 |  |  | 94 | 102 |  | RKVNNVWVWV-NH2 [RKVNNVWVWV-NH2, Arginyl-lysyl-valyl-asparaginyl-asparaginyl-valyl-tryptophyl-valyl-tryptophyl-valine-amide]
0 | 0 | 0 |  |  |  | KWKWNRTNVT-NH2 [reference compound]
 |  |  | 46 | 99 | 99 | RKNNGTWTWV-NH2 [RKNNGTWTWV-NH2, Arginyl-lysyl-asparaginyl-asparaginyl-glycyl-threonyl-tryptophyl-threonyl-tryptophyl-valine-amide]
17 | 20 |  |  |  |  | Arg-Lys-Asn-Asn-Lys-Thr-Trp-Thr-Trp-Glu-NH2 (RKNNKTWTWE-NH2)
14 | 30 |  | 13 | 20 |  | RKNNKTWTWV-NH2 [RKNNKTWTWV-NH2, Arginyl-lysyl-asparaginyl-asparaginyl-lysyl-threonyl-tryptophyl-threonyl-tryptophyl-valine-amide]
34 | 94 | 96 |  |  |  | Arg-Glu-Asn-Asn-Lys-Thr-Trp-Thr-Trp-Val-NH2 (RENNKTWTWV-NH2)
26 | 23 | 34 |  |  |  | RKNNKTWT-NH2
 |  | 17 |  |  |  | Arg-Lys-Val-Asn-Asn-Val-Trp-NH2 (RKVNNVW-NH2)
 |  |  | 9 |  | 47 | RKNNKTWTWVGTKKALTNEC-NH2 [Arginyl-lysyl-asparaginyl-asparaginyl-lysyl-threonyl-tryptophyl-threonyl-tryptophyl-valyl-glycyl-threonyl-lysyl-lysyl-alanyl-leucyl-threonyl-asparaginyl-glutamyl-cysteine-amide]
9 | 98 | 104 |  |  |  | Tyr-Lys-Asn-Asn-Lys-Thr-Trp-Thr-Trp-Val-NH2 (YKNNKTWTWV-NH2)
87 |  | 105 |  |  |  | Cys-Arg-Lys-Asn-Asn-Lys-Thr-Trp-Thr-Trp-Val-NH2 (CRKNNKTWTWV-NH2)
35 | 50 |  |  |  |  | Ac-Arg-Lys-Asn-Asn-Lys-Thr-Trp-Thr-Trp-Val-NH2 (Ac-RKNNKTWTWV-NH2)
